Common to all, as to assay type: biochemical
Data set [1] can be described thus: OHB reductase activity, NADH absorption at 340 nm. The method, then:
(§1) Enzymatic assays: The reaction mixture contained 60 mM Hepes (pH 7), 50 mM potassium chloride, 5 mM MgCl2, 0.25 mM NADH, (optionally 5 mM fructose-1,6-bisphosphate) (all products from Sigma), and appropriate amounts of purified malate or lactate dehydrogenase or cell extract. Reactions were started by adding appropriate amounts of 2-oxo-4-hydroxybutyrate (OHB), pyruvate, or oxaloacetate (OAA). Enzymatic assays were carried out at 37° C. in 96-well flat bottomed microtiter plates in a final volume of 250 μL. The reactions were followed by the characteristic absorption of NADH at 340 nm (εNADH=6.22 mM^−1 cm^−1) in a microplate reader (BioRad 680XR).
OHB was synthesized by incubating 125 mM homoserine with snake venom (L)-amino acid oxidase (1.25 U/mL, Sigma) and catalase (4400 U/mL, Sigma) in 100 mM Tris buffer at pH 7.8 for 90 min at 37° C. Subsequently, the reaction mixture was purified on an Amicon™ Ultra centrifugal filter with a cut-off of 10 kDa to eliminate the enzymes (method adapted from Wellner & Lichtenberg, 1971).
OHB was quantified by mixing 100 μL of the tested solution with 1 mL of a solution containing 1 M sodium arsenate and 1 M boric acid at pH 6.5. The mixture was incubated at room temperature for 30 min and the absorbance at 325 nm was used to quantify OHB. The relation between absorbance and concentration of the ketone was calibrated using pyruvate solutions of known concentrations (method adapted from (Wellner & Lichtenberg, 1971)). The typical OHB yield of the method was 90%.

Data set [2] in a line: pyruvate reductase activity, NADH absorption at 340 nm. Conditions: for Max. specific activity, natural substrate: natural substrate of Ldh: pyruvate, purified enzyme, 37° C., pH 7; for Max. specific activity, Pyruvate: L. lactis Ll-LdhA mutants. The method, then: as §1
Data set [3] can be described thus: homoserine transaminase activity, coupled dehydrogenase assay. The note with it: measured at 50 mM homoserine; 2-oxoglutarate as acceptor. The method, then:
Enzymatic assays: Transaminase activity of several candidate aminotransferases was quantified with 2-oxoglutarate as the amino group acceptor. Transaminase reactions were carried out using homoserine and the preferred amino acid of the enzymes. The reactions were followed by the amino acid-dependent oxidation of NADH in the coupled dehydrogenase reaction.
Transaminase Assays (Reaction Scheme)
Transaminase: Amino acid+2-oxoglutarate→2-oxo-acid+glutamate
Dehydrogenase: 2-oxo-acid+NADH→2-hydroxy-acid+NAD^+
The reaction mixture contained 60 mM Hepes (pH 7), 50 mM potassium chloride, 5 mM MgCl2, 4 mM 2-oxoglutarate, 0.1 mM pyridoxal-5′-phosphate (PLP), 0.25 mM NADH, (optionally 5 mM fructose-1,6-bisphosphate) (all products from Sigma), 4 Units/mL of auxiliary 2-hydroxyacid dehydrogenase, and appropriate amounts of purified aminotransferase or cell extract. The auxiliary dehydrogenase enzyme was purified PanE from L. lactis in case of the amino acids phenylalanine and leucine (Chambellon, Rijnen, Lorquet, Gitton, van HylckamaVlieg, Wouters, & Yvon, 2009), malate dehydrogenase (Sigma) in case of aspartate, and rabbit muscle (L)-lactate dehydrogenase (Sigma) when homoserine was used as the starting substrate. Reactions were started by adding 50 mM of the amino acid.
Enzymatic assays were carried out at 37° C. in 96-well flat bottomed microtiter plates in a final volume of 250 μL. The reactions were followed by the characteristic absorption of NAD(P)H at 340 nm (εNADPH=6.22 mM^−1 cm^−1) in a microplate reader (BioRad 680XR).

The nature of data set [4]: oxaloacetate reductase activity, NADH absorption at 340 nm. The note with it: E. coli Mdh mutants. The protocol: as §1
Where [5] appears, read: when not saturated, activity estimated at 20 mM substrate.

B1: Bs-Ldh: (L)-lactate dehydrogenase of Bacillus subtilis, SEQ ID NO: 8 (protein, listed as Bacillus subtilis)
chain: MMNKHVNKVALIGAGFVGSSYAFALINQGITDELVVIDVNKEKAMGDVMDLNHGKAFAPQPVKTSYGTYEDCKDADIVCICAGANQKPGETRLELVEKNLKIFKGIVSEVMASGFDGIFLVATNPVDILTYATWKFSGLPKERVIGSGTTLDSARFRFMLSEYFGAAPQNVHAHIIGEHGDTELPVWSHANVGGVPVSELVEKNDAYKQEELDQIVDDVKNAAYHIIEKKGATYYGVAMSLARITKAILHNENSILTVSTYLDGQYGADDVYIGVPAVVNRGGIAGITELNLNEKEKEQFLHSAGVLKNILKPHFAEQKVN
On to B1, for which the “Max. specific activity, OHB” value in data set [1] (setting [5]) was 15.7 µmol/mg/min. Further, in data set [2], the “Max. specific activity, natural substrate” value is 170 µmol/mg/min.

B2: Ec-LdhA: (D)-lactate dehydrogenase from Escherichia coli, SEQ ID NO: 4 (protein, listed as Escherichia coli)
chain: MKLAVYSTKQYDKKYLQQVNESFGFELEFFDFLLTEKTAKTANGCEAVCIFVNDDGSRPVLEELKKHGVKYIALRCAGFNNVDLDAAKELGLKVVRVPAYDPEAVAEHAIGMMMTLNRRIHRAYQRTRDANFSLEGLTGFTMYGKTAGVIGTGKIGVAMLRILKGFGMRLLAFDPYPSAAALELGVEYVDLPTLFSESDVISLHCPLTPENYHLLNEAAFEQMKNGVMIVNTSRGALIDSQAAIEALKNQKIGSLGMDVYENERDLFFEDKSNDVIQDDVFRRLSACHNVLFTGHQAFLTAEALTSISQTTLQNLSNLEKGETCPNELV
On to B2, for which the “Max. specific activity, OHB” value in data set [1] (setting [5]) is 0.56 µmol/mg/min. For the same molecule, the “Max. specific activity, natural substrate” value in data set [2] amounted to 265 µmol/mg/min.

B3: Ll-Ldh: (L)-lactate dehydrogenase of Lactococcus lactis, SEQ ID NO: 6 (protein, listed as Lactococcus lactis)
chain: MADKQRKKVILVGDGAVGSSYAFALVNQGIAQELGIVDLFKEKTQGDAEDLSHALAFTSPKKIYSADYSDASDADLVVLTSGAPQKPGETRLDLVEKNLRITKDVVTKIVASGFKGIFLVAANPVDILTYATWKFSGFPKNRVVGSGTSLDTARFRQALAEKVDVDARSIHAYIMGEHGDSEFAVWSHANVAGVKLEQWFQENDYLNEAEIVELFESVRDAAYSIIAKKGATFYGVAVALARITKAILDDEHAVLPVSVFQDGQYGVSDCYLGQPAVVGAEGVVNPIHIPLNDAEMQKMEASGAQLKAIIDEAFAKEEFASAVKN
Take B3: the “Max. specific activity, OHB” value in data set [1] (setting [5]) is 18 µmol/mg/min. Besides, in data set [2], the “Max. specific activity, natural substrate” value came out at 184 µmol/mg/min.

B4: Q85N: L. lactis lactate dehydrogenase A, Ll-LdhA, mutant Q85N, SEQ ID No. 30 (protein, listed as Lactococcus lactis)
chain: MADKQRKKVILVGDGAVGSSYAFALVNQGIAQELGIVDLFKEKTQGDAEDLSHALAFTSPKKIYSADYSDASDADLVVLTSGAPNKPGETRLDLVEKNLRITKDVVTKIVASGFKGIFLVAANPVDILTYATWKFSGFPKNRVVGSGTSLDTARFRQALAEKVDVDARSIHAYIMGEHGDSEFAVWSHANVAGVKLEQWFQENDYLNEAEIVELFESVRDAAYSIIAKKGATFYGVAVALARITKAILDDEHAVLPVSVFQDGQYGVSDCYLGQPAVVGAEGVVNPIHIPLNDAEMQKMEASGAQLKAIIDEAFAKEEFASAVKN
With B4, the “Max. specific activity, OHB” value in data set [1] (L. lactis Ll-LdhA mutants) was 63.9 µmol/mg/min. Also, the “Max. specific activity, Pyruvate” value in data set [2] was 184 µmol/mg/min.

B5: Q85NI226V: L. lactis lactate dehydrogenase A, Ll-LdhA, mutant Q85N I226V, SEQ ID No. 32 (protein, listed as Lactococcus lactis)
chain: MADKQRKKVILVGDGAVGSSYAFALVNQGIAQELGIVDLFKEKTQGDAEDLSHALAFTSPKKIYSADYSDASDADLVVLTSGAPNKPGETRLDLVEKNLRITKDVVTKIVASGFKGIFLVAANPVDILTYATWKFSGFPKNRVVGSGTSLDTARFRQALAEKVDVDARSIHAYIMGEHGDSEFAVWSHANVAGVKLEQWFQENDYLNEAEIVELFESVRDAAYSIVAKKGATFYGVAVALARITKAILDDEHAVLPVSVFQDGQYGVSDCYLGQPAVVGAEGVVNPIHIPLNDAEMQKMEASGAQLKAIIDEAFAKEEFASAVKN
In the case of B5, the “Max. specific activity, OHB” value in data set [1] (L. lactis Ll-LdhA mutants) is 4.9 µmol/mg/min. For the same molecule, the “Max. specific activity, Pyruvate” value in data set [2] is 11.5 µmol/mg/min.

B6: Ec-TyrB: aromatic-amino-acid transaminase from E. coli, SEQ ID No. 62 (protein, listed as Escherichia coli)
chain: VFQKVDAYAGDPILTLMERFKEDPRSDKVNLSIGLYYNEDGIIPQLQAVAEAEARLNAQPHGASLYLPMEGLNCYRHAIAPLLFGADHPVLKQQRVATIQTLGGSGALKVGADFLKRYFPESGVWVSDPTWENHVAIFAGAGFEVSTYPWYDEATNGVRFNDLLATLKTLPARSIVLLHPCCHNPTGADLTNDQWDAVIEILKARELIPFLDIAYQGFGAGMEEDAYAIRAIASAGLPALVSNSFSKIFSLYGERVGGLSVMCEDAEAAGRVLGQLKATVRRNYSSPPNFGAQVVAAVLNDEALKASWLAEVEEMRTRILAMRQELVKVLSTEMPERNFDYLLNQRGMFSYTGLSAAQVDRLREEFGVYLIASGRMCVAGLNTANVQRVAKAFAAVM
For B6, the “Max. specific activity on Homoserine” value in data set [3] is listed as 0.057 μmol/(min mgprot).

B7: Ll-AraT: aromatic-amino-acid transaminase from L. lactis, SEQ ID No. 66 (protein, listed as Lactococcus lactis)
chain: MDLLKKFNPNLDKIEISLIRQFDQQVSSIPDVIKLTLGEPDFYTPEHVKQAGIVAIENNQSHYTGMAGLLELRQAASEFMNKKYGLSYAAEDEILVTVGVTEAISSVLLSILVAGDEVLIPAPAYPGYEPLITLAGGSLVEIDTRANDFVLTPEMLEQAIVEREGKVKAVILNYPANPTGVTYNRGQIKALAEVLKKHEVFVIADEVYSELNYTDQPHVSIAEYAPEQTIVLNGLSKSHAMTGWRIGLIFAARELVAQIIKTHQYLVTSASTQSQFAAIEALKNGAYDALPMKKEYLKRRDYIIEKMSDLGFKIIEPDGAFYIFAKIPADLEQDSFKFAVDFAKENAVAIIPGIAFGQYGEGFVRLSYAASMDMIEQAMARLTDYVTKKRG
Take B7: the “Max. specific activity on Homoserine” value in data set [3] is recorded as 0.109 μmol/(min mgprot).

B8: Gs-Ldh: (L)-lactate dehydrogenase of Geobacillus stearothermophilus, SEQ ID NO: 10 (protein, listed as Geobacillus sterarothermophillus)
chain: MKNNGGARVVVIGAGFVGASYVFALMNQGIADEIVLIDANESKAIGDAMDFNHGKVFAPKPVDIWHGDYDDCRDADLVVICAGANQKPGETRLDLVDKNIAIFRSIVESVMASGFQGLFLVATNPVDILTYATWKFSGLPHERVIGSGTILDTARFRFLLGEYFSVAPQNVHAYIIGEHGDTELPVWSQAYIGVMPIRKLVESKGEEAQKDLERIFVNVRDAAYQIIEKKGATYYGIAMGLARVTRAILHNENAILTVSAYLDGLYGERDVYIGVPAVINRNGIREVIEIELNDDEKNRFHHSAATLKSVLARAFTR
For the molecule B8, the “Max. specific activity, OHB” value in data set [1] (setting [5]) is 66.8 µmol/mg/min. In addition, the “Max. specific activity, natural substrate” value in data set [2] amounted to 87.7 µmol/mg/min.

B9: R81A G179D D86S: E. coli malate dehydrogenase mutant, SEQ ID No. 118 (protein, listed as Escherichia coli)
chain: MKVAVLGAAGGIGQALALLLKTQLPSGSELSLYDIAPVTPGVAVDLSHIPTAVKIKGFSGEDATPALEGADVVLISAGVAAKPGMSRSDLFNVNAGIVKNLVQQVAKTCPKACIGIITNPVNTTVAIAAEVLKKAGVYDKNKLFGVTTLDIIRSNTFVAELKGKQPGEVEVPVIGGHSDVTILPLLSQVPGVSFTEQEVADLTKRIQNAGTEVVEAKAGGGSATLSMGQAAARFGLSLVRALQGEQGVVECAYVEGDGQYARFFSQPLLLGKNGVEERKSIGTLSAFEQNALEGMLDTLKKDIALGEEFVNK
Regarding B9, in data set [1] (E. coli Mdh mutants, measured at 20 mM OHB), the “Max. specific activity, OHB” value was determined as 19 µmol/mg/min. Further, in data set [1] (E. coli Mdh mutants, ns = not saturated up to 50 mM OHB), the “Km, OHB” value is listed as “ns”. In addition, the “Max. specific activity, OAA” value in data set [4] (measured at 0.5 mM oxaloacetate) amounted to 0.54 µmol/mg/min. In addition, the “Km, OAA” value in data set [4] (ns = not saturated up to 0.5 mM oxaloacetate) was “ns”.

These data come from US11505811B2, “Method for the preparation of 2,4-dihydroxybutyrate” (ADISSEO FRANCE S.A.S., priority 2012, dated 2022).
